# According to PMC6294517:
# T1: SSBP1 (single-stranded DNA-binding protein 1, mitochondrial) (UniProt Q04837 17-148)
# T1 sequence: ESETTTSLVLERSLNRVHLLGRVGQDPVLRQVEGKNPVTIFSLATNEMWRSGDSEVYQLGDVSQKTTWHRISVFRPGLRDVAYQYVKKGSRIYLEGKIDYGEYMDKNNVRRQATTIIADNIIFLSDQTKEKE
# B1: 5x 6mA fluorescent probe (PG491/PG493) (dsDNA)
# DNA 1: TATTTAACCTAAATTTCTATAAGATTATTAGTATAAAAGGG
# DNA 2: CCCTTTTATACTAATAATCTTATAGAAATTTAGGTTAAATA
# modifications: N6-methyldeoxyadenosine at strand 1 positions 19, 24, 27, 30, 33
# Biological target: T1, SSBP1 (single-stranded DNA-binding …)
# Experiment: fluorescence anisotropy
binder,measurement,value
B1,binding result,binds
